Patent publication US20140363465A1

Target: SIINFEKL:H-2K^b complex on the surface of A3.1A7 macrophage cells (chicken)
Assay: cell-based or functional assay

T cell receptor of the RF33.70 T-T hybridoma (CD8+, SIINFEKL-specific, H-2K^b-restricted) (TCR)
IL-2 production by the RF33.70 T cell hybridoma (sandwich ELISA), SIINFEKL peptide concentration giving a detectable response: < 0.1 pg/mL
level of IL-2 production generated in response to free SIINFEKL peptide: < 275 pg/mL
